Reference: patent publication US20220204580A1 (AstraZeneca / MedImmune, published 2022)
Numbered stars: 1 amine (or outer) side, 2 acyl side, 3 side chain; on linkers, the order of the positions; unused ones are H or OH. Bridge positions count the residues as written; N and C are the ends. Square brackets hold non-standard residues; d marks the D form. Side chains are listed from the residue outwards. Ends that are not written are not given here. * marks the point of attachment. C18 diacid = O=C(O)CCCCCCCCCCCCCCCCC(=O)*; γGlu = O=C(O)[C@H](CCC(=O)[*:2])N[*:1]; Aib = CC(C)(N)C(=O)O

T1: human amylin receptor (calcitonin receptor co-expressed with receptor activity modifying protein, RAMP3) (human, UniProt P30988 25-474; O60896 24-148)
T1 sequence (looked up) 1: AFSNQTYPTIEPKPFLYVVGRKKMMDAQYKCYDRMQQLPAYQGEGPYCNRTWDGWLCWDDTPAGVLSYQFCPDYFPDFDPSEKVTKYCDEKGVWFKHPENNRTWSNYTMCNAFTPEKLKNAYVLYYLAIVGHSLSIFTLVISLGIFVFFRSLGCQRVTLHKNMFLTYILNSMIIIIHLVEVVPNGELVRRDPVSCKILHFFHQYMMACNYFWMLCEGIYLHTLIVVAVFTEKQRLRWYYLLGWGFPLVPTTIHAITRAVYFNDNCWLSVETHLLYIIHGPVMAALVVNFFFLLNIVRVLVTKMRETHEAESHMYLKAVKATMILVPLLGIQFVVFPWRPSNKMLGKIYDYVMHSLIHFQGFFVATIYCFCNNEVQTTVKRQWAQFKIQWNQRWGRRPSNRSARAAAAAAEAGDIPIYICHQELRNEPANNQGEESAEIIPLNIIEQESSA
T1 sequence (looked up) 2: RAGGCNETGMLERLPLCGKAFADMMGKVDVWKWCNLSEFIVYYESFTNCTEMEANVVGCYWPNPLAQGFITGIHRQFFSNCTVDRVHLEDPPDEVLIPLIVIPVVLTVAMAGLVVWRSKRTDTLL

T2: human calcitonin receptor (human, UniProt P30988 25-474)
T2 sequence (looked up): T1 sequence (looked up) 1

B1: Peptide 47 (SEQ ID NO: 47) (peptide)
peptide: K([γGlu-C18 diacid])KCNTATCATQRLAHFLVHSS[Aib]NFGPILPPTNVGSETY-NH2
modifications: disulfide 3-8; N-terminus assumed
SMILES: CC[C@H](C)[C@H](NC(=O)[C@@H]1CCCN1C(=O)CNC(=O)[C@H](Cc1ccccc1)NC(=O)[C@H](CC(N)=O)NC(=O)C(C)(C)NC(=O)[C@H](CO)NC(=O)[C@H](CO)NC(=O)[C@H](Cc1c[nH]cn1)NC(=O)[C@@H](NC(=O)[C@H](CC(C)C)NC(=O)[C@H](Cc1ccccc1)NC(=O)[C@H](Cc1c[nH]cn1)NC(=O)[C@H](C)NC(=O)[C@H](CC(C)C)NC(=O)[C@H](CCCNC(=N)N)NC(=O)[C@H](CCC(N)=O)NC(=O)[C@@H](NC(=O)[C@H](C)NC(=O)[C@@H]1CSSC[C@H](NC(=O)[C@H](CCCCN)NC(=O)[C@@H](N)CCCCNC(=O)CC[C@H](NC(=O)CCCCCCCCCCCCCCCCC(=O)O)C(=O)O)C(=O)N[C@@H](CC(N)=O)C(=O)N[C@@H]([C@@H](C)O)C(=O)N[C@@H](C)C(=O)N[C@@H]([C@@H](C)O)C(=O)N1)[C@@H](C)O)C(C)C)C(=O)N[C@@H](CC(C)C)C(=O)N1CCC[C@H]1C(=O)N1CCC[C@H]1C(=O)N[C@H](C(=O)N[C@@H](CC(N)=O)C(=O)N[C@H](C(=O)NCC(=O)N[C@@H](CO)C(=O)N[C@@H](CCC(=O)O)C(=O)N[C@H](C(=O)N[C@@H](Cc1ccc(O)cc1)C(N)=O)[C@@H](C)O)C(C)C)[C@@H](C)O
B2: Peptide 50 (SEQ ID NO: 50) (peptide)
peptide: K([γGlu-γGlu-C18 diacid])CNTATCATQRLANFLRHSS[Aib]NFGPILPPTEVGSNTY-NH2
modifications: disulfide 2-7; N-terminus assumed
SMILES: CC[C@H](C)[C@H](NC(=O)[C@@H]1CCCN1C(=O)CNC(=O)[C@H](Cc1ccccc1)NC(=O)[C@H](CC(N)=O)NC(=O)C(C)(C)NC(=O)[C@H](CO)NC(=O)[C@H](CO)NC(=O)[C@H](Cc1c[nH]cn1)NC(=O)[C@H](CCCNC(=N)N)NC(=O)[C@H](CC(C)C)NC(=O)[C@H](Cc1ccccc1)NC(=O)[C@H](CC(N)=O)NC(=O)[C@H](C)NC(=O)[C@H](CC(C)C)NC(=O)[C@H](CCCNC(=N)N)NC(=O)[C@H](CCC(N)=O)NC(=O)[C@@H](NC(=O)[C@H](C)NC(=O)[C@@H]1CSSC[C@H](NC(=O)[C@@H](N)CCCCNC(=O)CC[C@H](NC(=O)CC[C@H](NC(=O)CCCCCCCCCCCCCCCCC(=O)O)C(=O)O)C(=O)O)C(=O)N[C@@H](CC(N)=O)C(=O)N[C@@H]([C@@H](C)O)C(=O)N[C@@H](C)C(=O)N[C@@H]([C@@H](C)O)C(=O)N1)[C@@H](C)O)C(=O)N[C@@H](CC(C)C)C(=O)N1CCC[C@H]1C(=O)N1CCC[C@H]1C(=O)N[C@H](C(=O)N[C@@H](CCC(=O)O)C(=O)N[C@H](C(=O)NCC(=O)N[C@@H](CO)C(=O)N[C@@H](CC(N)=O)C(=O)N[C@H](C(=O)N[C@@H](Cc1ccc(O)cc1)C(N)=O)[C@@H](C)O)C(C)C)[C@@H](C)O
B3: Peptide 51 (SEQ ID NO: 51) (peptide)
peptide: K([γGlu-C18 diacid])KCNTATCATQRLANFLSHSS[Aib]NFGPILPPTHVGSNTY-NH2
modifications: disulfide 3-8; N-terminus assumed
SMILES: CC[C@H](C)[C@H](NC(=O)[C@@H]1CCCN1C(=O)CNC(=O)[C@H](Cc1ccccc1)NC(=O)[C@H](CC(N)=O)NC(=O)C(C)(C)NC(=O)[C@H](CO)NC(=O)[C@H](CO)NC(=O)[C@H](Cc1c[nH]cn1)NC(=O)[C@H](CO)NC(=O)[C@H](CC(C)C)NC(=O)[C@H](Cc1ccccc1)NC(=O)[C@H](CC(N)=O)NC(=O)[C@H](C)NC(=O)[C@H](CC(C)C)NC(=O)[C@H](CCCNC(=N)N)NC(=O)[C@H](CCC(N)=O)NC(=O)[C@@H](NC(=O)[C@H](C)NC(=O)[C@@H]1CSSC[C@H](NC(=O)[C@H](CCCCN)NC(=O)[C@@H](N)CCCCNC(=O)CC[C@H](NC(=O)CCCCCCCCCCCCCCCCC(=O)O)C(=O)O)C(=O)N[C@@H](CC(N)=O)C(=O)N[C@@H]([C@@H](C)O)C(=O)N[C@@H](C)C(=O)N[C@@H]([C@@H](C)O)C(=O)N1)[C@@H](C)O)C(=O)N[C@@H](CC(C)C)C(=O)N1CCC[C@H]1C(=O)N1CCC[C@H]1C(=O)N[C@H](C(=O)N[C@@H](Cc1c[nH]cn1)C(=O)N[C@H](C(=O)NCC(=O)N[C@@H](CO)C(=O)N[C@@H](CC(N)=O)C(=O)N[C@H](C(=O)N[C@@H](Cc1ccc(O)cc1)C(N)=O)[C@@H](C)O)C(C)C)[C@@H](C)O
B4: Peptide 52 (SEQ ID NO: 52) (peptide)
peptide: K([γGlu-C18 diacid])KCNTATCATQRLANFLSHSS[Aib]NFGPILPPTRVGSNTY-NH2
modifications: disulfide 3-8; N-terminus assumed
SMILES: CC[C@H](C)[C@H](NC(=O)[C@@H]1CCCN1C(=O)CNC(=O)[C@H](Cc1ccccc1)NC(=O)[C@H](CC(N)=O)NC(=O)C(C)(C)NC(=O)[C@H](CO)NC(=O)[C@H](CO)NC(=O)[C@H](Cc1c[nH]cn1)NC(=O)[C@H](CO)NC(=O)[C@H](CC(C)C)NC(=O)[C@H](Cc1ccccc1)NC(=O)[C@H](CC(N)=O)NC(=O)[C@H](C)NC(=O)[C@H](CC(C)C)NC(=O)[C@H](CCCNC(=N)N)NC(=O)[C@H](CCC(N)=O)NC(=O)[C@@H](NC(=O)[C@H](C)NC(=O)[C@@H]1CSSC[C@H](NC(=O)[C@H](CCCCN)NC(=O)[C@@H](N)CCCCNC(=O)CC[C@H](NC(=O)CCCCCCCCCCCCCCCCC(=O)O)C(=O)O)C(=O)N[C@@H](CC(N)=O)C(=O)N[C@@H]([C@@H](C)O)C(=O)N[C@@H](C)C(=O)N[C@@H]([C@@H](C)O)C(=O)N1)[C@@H](C)O)C(=O)N[C@@H](CC(C)C)C(=O)N1CCC[C@H]1C(=O)N1CCC[C@H]1C(=O)N[C@H](C(=O)N[C@@H](CCCNC(=N)N)C(=O)N[C@H](C(=O)NCC(=O)N[C@@H](CO)C(=O)N[C@@H](CC(N)=O)C(=O)N[C@H](C(=O)N[C@@H](Cc1ccc(O)cc1)C(N)=O)[C@@H](C)O)C(C)C)[C@@H](C)O
B5: Peptide 49 (SEQ ID NO: 49) (peptide)
peptide: K([γGlu-γGlu-C18 diacid])CNTATCATQRLANFLVHSS[Aib]NFGPILPPTEVGSNTY-NH2
modifications: disulfide 2-7; N-terminus assumed
SMILES: CC[C@H](C)[C@H](NC(=O)[C@@H]1CCCN1C(=O)CNC(=O)[C@H](Cc1ccccc1)NC(=O)[C@H](CC(N)=O)NC(=O)C(C)(C)NC(=O)[C@H](CO)NC(=O)[C@H](CO)NC(=O)[C@H](Cc1c[nH]cn1)NC(=O)[C@@H](NC(=O)[C@H](CC(C)C)NC(=O)[C@H](Cc1ccccc1)NC(=O)[C@H](CC(N)=O)NC(=O)[C@H](C)NC(=O)[C@H](CC(C)C)NC(=O)[C@H](CCCNC(=N)N)NC(=O)[C@H](CCC(N)=O)NC(=O)[C@@H](NC(=O)[C@H](C)NC(=O)[C@@H]1CSSC[C@H](NC(=O)[C@@H](N)CCCCNC(=O)CC[C@H](NC(=O)CC[C@H](NC(=O)CCCCCCCCCCCCCCCCC(=O)O)C(=O)O)C(=O)O)C(=O)N[C@@H](CC(N)=O)C(=O)N[C@@H]([C@@H](C)O)C(=O)N[C@@H](C)C(=O)N[C@@H]([C@@H](C)O)C(=O)N1)[C@@H](C)O)C(C)C)C(=O)N[C@@H](CC(C)C)C(=O)N1CCC[C@H]1C(=O)N1CCC[C@H]1C(=O)N[C@H](C(=O)N[C@@H](CCC(=O)O)C(=O)N[C@H](C(=O)NCC(=O)N[C@@H](CO)C(=O)N[C@@H](CC(N)=O)C(=O)N[C@H](C(=O)N[C@@H](Cc1ccc(O)cc1)C(N)=O)[C@@H](C)O)C(C)C)[C@@H](C)O
B6: Peptide 46 (SEQ ID NO: 46) (peptide)
peptide: K([γGlu-C18 diacid])KCNTATCATQRLAHFLVHSS[Aib]NFGPILPPTNVGSNTY-NH2
modifications: disulfide 3-8; N-terminus assumed
SMILES: CC[C@H](C)[C@H](NC(=O)[C@@H]1CCCN1C(=O)CNC(=O)[C@H](Cc1ccccc1)NC(=O)[C@H](CC(N)=O)NC(=O)C(C)(C)NC(=O)[C@H](CO)NC(=O)[C@H](CO)NC(=O)[C@H](Cc1c[nH]cn1)NC(=O)[C@@H](NC(=O)[C@H](CC(C)C)NC(=O)[C@H](Cc1ccccc1)NC(=O)[C@H](Cc1c[nH]cn1)NC(=O)[C@H](C)NC(=O)[C@H](CC(C)C)NC(=O)[C@H](CCCNC(=N)N)NC(=O)[C@H](CCC(N)=O)NC(=O)[C@@H](NC(=O)[C@H](C)NC(=O)[C@@H]1CSSC[C@H](NC(=O)[C@H](CCCCN)NC(=O)[C@@H](N)CCCCNC(=O)CC[C@H](NC(=O)CCCCCCCCCCCCCCCCC(=O)O)C(=O)O)C(=O)N[C@@H](CC(N)=O)C(=O)N[C@@H]([C@@H](C)O)C(=O)N[C@@H](C)C(=O)N[C@@H]([C@@H](C)O)C(=O)N1)[C@@H](C)O)C(C)C)C(=O)N[C@@H](CC(C)C)C(=O)N1CCC[C@H]1C(=O)N1CCC[C@H]1C(=O)N[C@H](C(=O)N[C@@H](CC(N)=O)C(=O)N[C@H](C(=O)NCC(=O)N[C@@H](CO)C(=O)N[C@@H](CC(N)=O)C(=O)N[C@H](C(=O)N[C@@H](Cc1ccc(O)cc1)C(N)=O)[C@@H](C)O)C(C)C)[C@@H](C)O

These binders were tested against T1, human amylin receptor (calcitonin …) (assay: cell-based or functional assay).

EC50 (cAMP production) [pM] | Ratio (EC50 hCTR / EC50 hAMYR3) | Binder
218 | 2 | B1
349 | 54 | B2
126 | 13 | B3
89 | 12 | B4
334 | 12 | B5
109 | 3 | B6

Each binder was assayed against T2, human calcitonin receptor (assay: cell-based or functional assay).

EC50 (cAMP production) [pM] | Binder
468 | B1
18900 | B2
1640 | B3
1100 | B4
4140 | B5
362 | B6
